Values of other authors as cited in publication PMC12188480.
pKd: −log10 of the molar value.

Target: c-MET (Homo sapiens) (UniProt P08581)
Sequence (P08581 25-932): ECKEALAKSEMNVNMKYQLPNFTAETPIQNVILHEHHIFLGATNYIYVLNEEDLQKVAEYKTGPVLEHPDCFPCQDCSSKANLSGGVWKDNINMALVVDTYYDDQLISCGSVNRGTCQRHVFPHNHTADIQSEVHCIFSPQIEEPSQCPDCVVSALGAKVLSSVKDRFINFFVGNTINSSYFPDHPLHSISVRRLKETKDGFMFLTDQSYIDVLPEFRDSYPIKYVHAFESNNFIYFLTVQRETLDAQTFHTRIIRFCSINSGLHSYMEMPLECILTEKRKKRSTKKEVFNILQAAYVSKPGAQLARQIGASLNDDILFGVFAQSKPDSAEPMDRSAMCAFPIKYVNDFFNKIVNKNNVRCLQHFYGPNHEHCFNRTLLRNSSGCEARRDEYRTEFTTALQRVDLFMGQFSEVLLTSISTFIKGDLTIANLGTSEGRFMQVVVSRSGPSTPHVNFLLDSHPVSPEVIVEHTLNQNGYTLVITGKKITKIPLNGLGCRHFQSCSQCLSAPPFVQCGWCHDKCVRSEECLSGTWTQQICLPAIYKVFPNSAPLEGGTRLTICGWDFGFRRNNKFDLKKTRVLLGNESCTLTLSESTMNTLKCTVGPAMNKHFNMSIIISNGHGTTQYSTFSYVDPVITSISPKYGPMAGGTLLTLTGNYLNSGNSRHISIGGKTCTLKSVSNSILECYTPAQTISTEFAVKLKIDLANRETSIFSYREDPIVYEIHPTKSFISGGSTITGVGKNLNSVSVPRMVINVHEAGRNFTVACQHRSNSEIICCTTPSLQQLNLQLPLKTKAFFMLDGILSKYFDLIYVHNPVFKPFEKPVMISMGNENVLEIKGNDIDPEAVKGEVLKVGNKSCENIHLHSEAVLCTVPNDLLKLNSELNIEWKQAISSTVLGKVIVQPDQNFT

pKd: 8.92
Substance: onartuzumab
